Our source for the Kd values is article PMC3449402.

The target of this assay is MAb<EGFR> (human). Kind of assay: SPR. (In general: SPR reads the build-up and loss of mass on a sensor chip optically.)

The term Kd denotes a measure of binding affinity in units of concentration. A higher Kd goes with lower affinity. The substance “soluble construct of the FcγRIIIa ectodomain (from UniProt P08637 17-208) (receptor)” gave a Kd of 120 nM.
